Reference: patent publication US20240239881A1 (Innovent, published 2024)

Tests used:
Rabbit ANG2 = target: T1, Rabbit ANG2 (rabbit, UniProt G1T9B3 19-496); experiment: SPR, Biacore T200, mean of three experiments
T1 sequence: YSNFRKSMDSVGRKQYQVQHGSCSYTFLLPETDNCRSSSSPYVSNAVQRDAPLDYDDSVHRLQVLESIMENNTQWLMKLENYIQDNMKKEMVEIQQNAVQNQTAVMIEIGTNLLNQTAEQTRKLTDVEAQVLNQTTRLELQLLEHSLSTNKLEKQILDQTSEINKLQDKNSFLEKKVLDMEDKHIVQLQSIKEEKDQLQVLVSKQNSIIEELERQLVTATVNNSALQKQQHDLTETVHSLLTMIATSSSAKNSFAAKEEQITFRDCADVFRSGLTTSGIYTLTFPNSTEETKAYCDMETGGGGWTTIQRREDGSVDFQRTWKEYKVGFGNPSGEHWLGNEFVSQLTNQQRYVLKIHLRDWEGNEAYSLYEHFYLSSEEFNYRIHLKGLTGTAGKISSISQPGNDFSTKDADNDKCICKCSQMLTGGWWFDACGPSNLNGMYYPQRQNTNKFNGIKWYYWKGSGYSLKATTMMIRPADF
Protocol: (§1) The antibody was diluted to 1 μg/mL and was captured onto channel 2 for 30 s, and channel 1 was the blank control channel. The gradient-diluted Human ANG2, Rhesus ANG2, Rabbit ANG2, Rat ANG2 and Mouse ANG2 were sequentially injected into channels 1 and 2 of the chip, from low to high concentrations (0-32 nM), at a flow rate of 30 μL/min, with one concentration per cycle, and with 180 s association time and 1200 s dissociation time at 25° C. Finally, the chip was regenerated using Glycine pH 1.5 at 30 μL/min for 30 s. The affinity assay was repeated three times.

Rhesus ANG2 [1] = target: T2, Rhesus ANG2 (rhesus, UniProt F6QXG0 19-496); experiment: SPR, Biacore T200, mean of three experiments
T2 sequence: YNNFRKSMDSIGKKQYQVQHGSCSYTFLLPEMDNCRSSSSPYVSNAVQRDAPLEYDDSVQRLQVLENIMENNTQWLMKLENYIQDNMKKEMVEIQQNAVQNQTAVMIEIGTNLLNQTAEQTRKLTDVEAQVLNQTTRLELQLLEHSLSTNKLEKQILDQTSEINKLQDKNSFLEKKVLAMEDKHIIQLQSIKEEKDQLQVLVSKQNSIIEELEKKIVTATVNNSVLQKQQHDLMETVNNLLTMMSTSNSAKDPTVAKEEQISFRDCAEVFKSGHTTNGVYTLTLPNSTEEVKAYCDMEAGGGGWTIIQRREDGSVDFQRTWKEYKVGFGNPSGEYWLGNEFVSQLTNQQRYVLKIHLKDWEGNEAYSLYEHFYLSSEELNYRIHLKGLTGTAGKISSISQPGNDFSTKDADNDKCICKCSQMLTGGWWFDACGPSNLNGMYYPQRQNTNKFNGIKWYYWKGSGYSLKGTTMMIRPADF
Protocol: as §1

human Ang2 = target: T3, human Ang2 (human, UniProt O15123 19-496, limits assumed); experiment: SPR, Biacore T200, mean of three experiments
T3 construct: also called hAng2; h Ang2
T3 sequence: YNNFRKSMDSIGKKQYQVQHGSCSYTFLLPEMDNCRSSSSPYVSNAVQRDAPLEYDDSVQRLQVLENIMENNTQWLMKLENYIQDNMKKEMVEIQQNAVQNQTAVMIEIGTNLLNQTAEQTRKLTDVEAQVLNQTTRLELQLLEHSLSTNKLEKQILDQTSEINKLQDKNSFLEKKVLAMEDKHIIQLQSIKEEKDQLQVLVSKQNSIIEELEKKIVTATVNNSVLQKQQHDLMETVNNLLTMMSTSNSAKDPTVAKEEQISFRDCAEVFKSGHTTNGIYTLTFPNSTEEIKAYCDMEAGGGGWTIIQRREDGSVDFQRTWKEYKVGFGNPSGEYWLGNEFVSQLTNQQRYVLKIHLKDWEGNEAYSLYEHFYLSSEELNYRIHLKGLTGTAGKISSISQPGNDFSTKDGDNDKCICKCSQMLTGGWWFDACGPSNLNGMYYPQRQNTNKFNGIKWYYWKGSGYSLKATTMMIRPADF
Protocol: as §1

Rhesus ANG2 [2] = target: T2, Rhesus ANG2; experiment: SPR, Biacore T200, antibody captured on Protein G chip, experiment 3
Protocol: as §1

[3] = target: T4, hAng2-Fc protein (Sino Biological, Cat No.: 10691-H02H) (human, UniProt O15123 19-496); experiment: cell-based or functional assay
T4 sequence: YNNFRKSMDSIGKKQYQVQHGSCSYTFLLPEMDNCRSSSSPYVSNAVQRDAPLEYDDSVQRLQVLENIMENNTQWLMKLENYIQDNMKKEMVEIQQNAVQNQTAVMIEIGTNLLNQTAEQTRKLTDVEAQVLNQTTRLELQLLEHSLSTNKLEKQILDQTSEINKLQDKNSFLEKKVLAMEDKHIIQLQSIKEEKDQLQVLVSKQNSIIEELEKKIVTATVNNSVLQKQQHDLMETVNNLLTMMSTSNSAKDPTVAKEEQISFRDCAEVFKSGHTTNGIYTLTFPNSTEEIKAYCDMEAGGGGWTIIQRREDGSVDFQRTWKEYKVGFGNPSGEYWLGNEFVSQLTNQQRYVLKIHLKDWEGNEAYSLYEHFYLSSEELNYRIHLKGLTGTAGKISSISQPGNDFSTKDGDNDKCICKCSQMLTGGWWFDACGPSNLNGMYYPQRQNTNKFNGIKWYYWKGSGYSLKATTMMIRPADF

Human Ang1 = target: T5, Human Ang1 (human, UniProt Q15389 20-498, limits assumed); experiment: ForteBio BLI, antibody on AHQ sensor
T5 construct: also called hAng1
T5 sequence (looked up): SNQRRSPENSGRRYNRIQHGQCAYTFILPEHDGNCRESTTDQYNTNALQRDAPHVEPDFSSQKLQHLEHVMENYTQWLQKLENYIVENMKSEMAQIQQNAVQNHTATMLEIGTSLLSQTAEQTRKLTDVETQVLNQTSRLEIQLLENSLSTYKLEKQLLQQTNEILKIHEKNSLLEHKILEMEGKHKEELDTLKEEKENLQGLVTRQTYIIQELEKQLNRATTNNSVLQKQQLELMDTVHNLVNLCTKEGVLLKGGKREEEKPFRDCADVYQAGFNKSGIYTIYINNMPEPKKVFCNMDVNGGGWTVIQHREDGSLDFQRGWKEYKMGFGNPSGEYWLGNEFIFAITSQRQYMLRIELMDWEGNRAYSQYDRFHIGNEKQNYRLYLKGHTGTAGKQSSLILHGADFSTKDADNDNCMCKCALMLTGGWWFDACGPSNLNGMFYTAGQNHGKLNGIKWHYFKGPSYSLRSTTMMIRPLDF
Protocol: The equilibrium dissociation constants (KD) of the above exemplary antibodies of the present invention binding to human Ang2 (h Ang2), cynomolgus monkey Ang2 (cAng2), murine Ang2 (mAng2), and human Ang1 (hAng1) were determined using the biological optical interferometry (ForteBio) assay.
The ForteBio affinity assay was performed according to the existing method (Estep, P et al., High throughput solution-based measurement of antibody-antigen affinity and epitope binning. MAbs, 2013.5 (2): p. 270-8). Briefly, the sensor was equilibrated in the assay buffer off-line for 30 min, followed by on-line detection for 60 s to establish the baseline. Then the purified antibodies obtained as described above were loaded on-line onto an AHQ sensor (ForteBio) for ForteBio affinity assay. The sensors with loaded antibodies were exposed to 100 nM of hAng2, cAng2, mAng2, and hAng1 antigens for 5 min, and then were transferred into the assay buffer for dissociation for 5 min to determine the dissociation rate. Kinetic analysis was performed using a 1:1 binding model.

- Kd (Rabbit ANG2): 0.48 nM
- Kd (Rhesus ANG2 [1]): 0.146 nM
- Kd (human Ang2): 0.0457 nM
- Kd (Rhesus ANG2 [2]): 0.13 nM
- koff (Rhesus ANG2 [2]): 4.03e-05 s⁻¹
- kon (Rhesus ANG2 [2]): 311000 M⁻¹ s⁻¹
- IC50 (read off the curve) [3]: ~5 nM
- binding result (Human Ang1): no binding (tested: 100 nM)
B1: humanized antibody hz81H10.4 (antibody, human IgG1, kappa, V domains shown)
VH: EVQLVESGGGLVKPGGSLRLSCAASGFTFSNYWMNWVRQAPGKGLEWVAEIRLKSNNYATHYAESVKGRFTISRDVSKNTVYLQMNSLKTEDTAVYYCTDTAPFAYWGQGTLVTVSS
VL: DIQMTQSPSSLSASVGDRVTITCKASQDVGTDVAWYQQKPGKAPKLLIYWASTRHTGVPSRFSGSGSGTDFTLTISSLQPEDFATYYCQQYSSYPLTFGGGTKVEIKR
notes: also called IBI335
